Measurements as given in US7217694B2, “Inhibitors of IAPP fibril formation and uses thereof” (The Governing Counsel of the University of Toronto, priority 2000, dated 2007).
“Also recorded” adds a separate entry of the source. Each block holds one molecule with its values, some of them ahead of it.

Key:
hIAPP 1–37 [1] = molecular target: T1, hIAPP 1–37 (Homo sapiens, UniProt P10997); assay: Circular dichroism (CD) of IAPP conformational change, random coil to β-sheet; format: biochemical; conditions: for effect on IAPP β-sheet formation / precipitation (CD): pH 6.5; for effect on IAPP conformation (CD): higher molar ratios / higher concentrations; for inhibition of IAPP β-sheet formation / fibril formation, overall statement (CD): molar ratio not stated; for effect on initial random structure of IAPP (CD) / conformational change of IAPP (CD): time 0; for effect on initial random structure of IAPP (CD): 1:10 or 1:20 molar ratio; for inhibitory activity from the circular dichroism results, peptides from the 8–20 region (summary): FIGS. 9A to 16B; for description of activity on IAPP conformation (CD), peptides from the 8–20 region: concentration not given; for effect on IAPP conformation (CD), peptides from the 8–20 region: 10-fold molar excess
T1 construct: Synthetic human IAPP (1–37) was purchased from BACHEM; purchased BACHEM (Torrence, Calif.); host or cells: chemical synthesis
T1 sequence (P10997 34-70): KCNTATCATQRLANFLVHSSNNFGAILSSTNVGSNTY
Description: (§1) FIG. 1 illustrates the sequence of the amyloid-β (Aβ) peptide and its proposed structural domains. A peptide-based approach similar to that used for Aβ (Tjernberg, et al, J Biol Chem 272:12601–12605, 1997) has been used for targeting two key domains in IAPP initially ranging from the 8–20 and 20–29 sequences as shown in FIG. 2. These peptides, as has been shown for Aβ peptides, are able to bind to the full-length IAPP peptide and alter fibrillogenesis. The peptides disrupt fibrillogenesis by disrupting the folding into the amyloidogenic β-sheet conformation, disrupting protofilament interactions, and/or interfering with side chain interactions within the folded IAPP, which are necessary for aggregation and fibril formation. The peptides that have been examined (shown in FIG. 2) were small, synthetic hexapeptides that correspond to the principal sequence domains of IAPP. […] The in vitro assays included: Circular Dichroism (CD), to look at changes in folding of the amyloidogenic β-sheet; negative stain electron microscopy (EM) to examine changes in fibril morphology and relative density; and ThT fluorescence assay which provides a quantitative assessment of fibril formation.
Synthetic human IAPP (1–37) was purchased from BACHEM (Torrence, Calif.), synthetic peptides spanning the region from IAPP 8 to 20 and 19–31 (FIG. 3) were synthesized by the Peptide Synthesis Laboratory at the University of Toronto using standard FMOC (Fluoroenylmethoxycarbonyl) based solid phase peptide synthesis methodology. The peptides were purified by reverse phase HPLC using water/acetonitrile mixtures buffered with 0. 1% trifluoroacetic acid, on a POROS 20R2 column. The synthetic peptides were solubilized in […] (1 mg/ml), filtered (0.2 μm), aliquotted and lyophilized (Higham, C E., et al., FEBS Lett. 470: 55–60, 2000). Aliquots were reconstituted as required in 20 mM sodium acetate buffer pH 6.5.
CD was used to measure the peptide conformational changes associated with fibril formation. CD experiments were carried out at room temperature, and spectra (average of 5 scans) were collected using a Jasco J720 spectropolarimeter and quartz cuvettes with a path length of 1 mm. […]

hIAPP 1–37 [2] = molecular target: T1, hIAPP 1–37; assay: Negative stain electron microscopy of IAPP fibril morphology and density; format: biochemical; conditions: for effect on IAPP fibril morphology / density / aggregation (EM): molar ratio not stated
Description: as §1
TEM was used for structural analysis of in vitro assembled fibrils. Aliquots (4 μl) were applied to pioloform and carbon coated grids. The samples were incubated on the grids for 3 minutes at room temperature, excess material blotted off and stained with 1% phosphotungstic acid (PTA). Excess PTA was blotted off and the sample was left to air dry. All samples were examined using a Hitachi 7000 electron microscope with an accelerating voltage of 75 kV.
In preliminary work the series of peptides were synthesized from the 20–29 domain and examined, via CD, EM and ThT fluorescence, at two molar ratios (1:10 and 1:20) in comparison to the full-length IAPP residues 1–37. The following data (FIGS. 5A to 5D, 6A to 6C and 7A to 7B) were obtained.

[3] = molecular target: T2, Synthetic human IAPP (1-37) (human, not fully specified); assay: cell-based or functional assay
T2 peptide: T1 sequence (P10997 34-70)

- hIAPP conformation by CD (hIAPP 1–37 [1]; 1:1 molar ratio with IAPP): no longer inhibitory
Molecule: AILSST
- inhibition of IAPP β-sheet transition and aggregation (CD) (hIAPP 1–37 [1]; 1:10 or 1:20 molar ratio (10- or 20-fold molar excess)): very strong inhibitors of IAPP β-sheet transition
- hIAPP conformation by CD (hIAPP 1–37 [1]; 5-fold molar excess): able to maintain hIAPP as a random coil peptide
- inhibition of IAPP β-sheet conformational change at reduced concentrations (CD) (hIAPP 1–37 [1]; 5-fold molar excess (1:5) or 1:1 molar ratio): capable of maintaining the majority of hIAPP in a random coil conformation
- effect on IAPP β-sheet formation / precipitation (CD) (hIAPP 1–37 [1]; 48-hour incubation): able to prevent the attenuation of signal due to precipitation of IAPP
- effect on IAPP conformation (CD) (hIAPP 1–37 [1]): prevented the conformational change to β-sheet
- inhibition of IAPP β-sheet formation / fibril formation, overall statement (CD) (hIAPP 1–37 [1]): greatest inhibition of IAPP fibril formation
- effect on initial random structure of IAPP (CD) (hIAPP 1–37 [1]): had no effect on the initial random structure of IAPP
- effect on IAPP fibril morphology / density / aggregation (EM) (hIAPP 1–37 [2]): fibrils formed were less numerous; also recorded: absence of fibrillar aggregates which could act as seeds

- inhibitory activity from the circular dichroism results, peptides from the 8–20 region (summary) (hIAPP 1–37 [1]): have inhibitory activity
- description of activity on IAPP conformation (CD), peptides from the 8–20 region (hIAPP 1–37 [1]): maintained a random coil
- effect on IAPP fibril morphology / density / aggregation (EM) (hIAPP 1–37 [2]): lower density of IAPP fibrils
Molecule: ANFLVH [FRA-019]

- inhibitory activity from the circular dichroism results, peptides from the 8–20 region (summary) (hIAPP 1–37 [1]): have inhibitory activity
- effect on IAPP conformation (CD) (hIAPP 1–37 [1]): limited inhibition
Molecule: ATQRLA [FRA-012]
- effect on IAPP fibril morphology / density / aggregation (EM) (hIAPP 1–37 [2]): only limited effects on the density and morphology of the fibrils

Molecule: FGAILS
- effect on IAPP β-sheet formation / precipitation (CD) (hIAPP 1–37 [1]; 48-hour incubation): little effect on the ability of hIAPP (1–37) to form a β-sheet
- effect on initial random structure of IAPP (CD) (hIAPP 1–37 [1]): had no effect on the initial random structure of IAPP
- effect on IAPP fibril morphology / density / aggregation (EM) (hIAPP 1–37 [2]): had no effect on the morphology of IAPP fibrillar aggregates

- inhibitory activity from the circular dichroism results, peptides from the 8–20 region (summary) (hIAPP 1–37 [1]): have inhibitory activity
- description of activity on IAPP conformation (CD), peptides from the 8–20 region (hIAPP 1–37 [1]): some modest inhibition
Molecule: FLVHSS [FRA-018]

Molecule: GAILSST
- effect on IAPP conformation (CD) (hIAPP 1–37 [1]): prevented the conformational change to β-sheet

Molecule: ILSSTN
- effect on IAPP β-sheet formation / precipitation (CD) (hIAPP 1–37 [1]; 48-hour incubation): little effect on the ability of hIAPP (1–37) to form a β-sheet
- effect on initial random structure of IAPP (CD) (hIAPP 1–37 [1]): had no effect on the initial random structure of IAPP

- effect on IAPP conformation (CD), peptides from the 8–20 region (hIAPP 1–37 [1]): relatively good inhibition
- inhibitory activity from the circular dichroism results, peptides from the 8–20 region (summary) (hIAPP 1–37 [1]): have inhibitory activity
- effect on IAPP conformation (CD) (hIAPP 1–37 [1]): better activity
- effect on IAPP fibrils (EM) (hIAPP 1–37 [2]; 10-fold excess): disruption of normal fibrils
- effect on IAPP fibrils (EM) (hIAPP 1–37 [2]; 20 fold molar excess): Some fibrils were also seen
Molecule: LANFLV [FRA-016]

- conformational change of IAPP (CD) (hIAPP 1–37 [1]; 10 fold excess): a conformational change at time 0
- effect on IAPP fibrils (EM) (hIAPP 1–37 [2]; 20 fold molar excess): appeared to enhance IAPP aggregation
Molecule: NFGAIL
- inhibition of IAPP β-sheet formation / fibril formation, overall statement (CD) (hIAPP 1–37 [1]): not inhibitory; also recorded: may actually enhance IAPP fibril formation
- conformational change of IAPP (CD) (hIAPP 1–37 [1]; 20 fold excess): conformational change from random coil to β-sheet
- effect on IAPP fibril morphology / density / aggregation (EM) (hIAPP 1–37 [2]): slightly enhanced fibril formation; also recorded: had no effect on the morphology of IAPP fibrillar aggregates; also recorded: immediate increase in the development of fibrils

- inhibitory activity from the circular dichroism results, peptides from the 8–20 region (summary) (hIAPP 1–37 [1]): have inhibitory activity
- description of activity on IAPP conformation (CD), peptides from the 8–20 region (hIAPP 1–37 [1]): limited inhibitory activity
Molecule: NFLVHS [FRA-017]
- effect on IAPP fibril morphology / density / aggregation (EM) (hIAPP 1–37 [2]): only limited effects on the density and morphology of the fibrils

- IAPP conformation (CD) (hIAPP 1–37 [1]; 48-hour incubation, 20-fold molar excess): maintain IAPP in a random conformation
- inhibition of IAPP β-sheet formation / fibril formation, overall statement (CD) (hIAPP 1–37 [1]): little, if any, inhibitory properties
Molecule: NNFGAI
- effect on IAPP β-sheet formation / precipitation (CD) (hIAPP 1–37 [1]; 48-hour incubation): little effect on the ability of hIAPP (1–37) to form a β-sheet
- effect on IAPP aggregation or precipitation (CD) (hIAPP 1–37 [1]; 48-hour incubation, 10 fold molar excess): no effect on aggregation or precipitation of hIAPP
- effect on initial random structure of IAPP (CD) (hIAPP 1–37 [1]): had no effect on the initial random structure of IAPP
- effect on IAPP fibril morphology / density / aggregation (EM) (hIAPP 1–37 [2]): had no effect on the morphology of IAPP fibrillar aggregates

- effect on IAPP fibril morphology / density / aggregation (EM) (hIAPP 1–37 [2]): significantly accelerated aggregation
Molecule: QRLANF [FRA-014]

Molecule: RLANFL [FRA-015]
- effect on IAPP fibril morphology / density / aggregation (EM) (hIAPP 1–37 [2]): enhanced lateral aggregation (ribbon structures); also recorded: significantly accelerated aggregation

Molecule: SSNFGA
- inhibition of normal IAPP fibrillar aggregation (EM) (hIAPP 1–37 [2]; reduced inhibitor concentrations): effective inhibitors of normal IAPP fibrillar aggregation

Molecule: SSNNFG
- hIAPP conformation by CD (hIAPP 1–37 [1]; 1:1 molar ratio with IAPP): maintained hIAPP (1–37) in a random coil conformation
- effect on IAPP β-sheet formation / precipitation (CD) (hIAPP 1–37 [1]; 48-hour incubation): capable of maintaining IAPP in a random conformation
- inhibition of IAPP β-sheet formation / fibril formation, overall statement (CD) (hIAPP 1–37 [1]): strong inhibitors of β-sheet formation; also recorded: effective inhibitors even when used at low concentrations
- effect on initial random structure of IAPP (CD) (hIAPP 1–37 [1]): had no effect on the initial random structure of IAPP
- effect on IAPP fibril morphology / density / aggregation (EM) (hIAPP 1–37 [2]): typical high density of IAPP fibrils was not seen; also recorded: absence of fibrillar aggregates which could act as seeds

- effect on IAPP conformation (CD) (hIAPP 1–37 [1]): possibility of a random coil
- effect on IAPP fibril morphology / density / aggregation (EM) (hIAPP 1–37 [2]): significantly accelerated aggregation
Molecule: TQRLAN [FRA-013]
- effect on IAPP conformation (CD), peptides from the 8–20 region (hIAPP 1–37 [1]): enhanced formation of the beta-sheet conformation

- sedimentation assay: soluble hIAPP remaining after 24 hours, 10 fold excess of peptide [3]: > 80%
- sedimentation assay: soluble hIAPP remaining after 48 hours, 10 fold excess of peptide [3]: ~25%
- sedimentation assay: soluble hIAPP remaining after 72 hours, 10 fold excess of peptide [3]: ~20%
B1: GAILSS (peptide)
peptide: GAILSS

- sedimentation assay: soluble hIAPP remaining after 24 hours, 10 fold excess of peptide [3]: ~15%
- sedimentation assay: soluble hIAPP remaining after 48 hours, 10 fold excess of peptide [3]: ~25%
- sedimentation assay: soluble hIAPP remaining after 72 hours, 10 fold excess of peptide [3]: ~20%
B2: SNNFGA (peptide)
peptide: SNNFGA

- molar excess of peptide needed to keep IAPP in random conformation (CD, 48 hours) [3]: 20 fold molar excess
B3: NNFGAI (peptide)
peptide: NNFGAI
